# B1: Protein OPY2 (Saccharomyces cerevisiae), Q06810 (parent)
# chain: MSSSSKASASSSLSSTATSSTSATRGSDGCVVCDSTASCPVCASGEYCVMTSLTCDKCPSTYCAKQSDSQLSSLSSSSSSSSSSNSNEKTSLIVGFTVGIVGGAMLIALVALYFINKRYWKPKRQKNKALKLEEASQSYGNEEEYFDDEDDDDEDDEDDGGMRKDESHTLFNTSLVPPTLNVPGNRSSASTTRTRASNILPIAYIPGVTSGLSTDKLQSKLRSSSKRQNAAGDIRSHITLGSSILDGLDDEDDEHNQVLNKDADDNLITAIRAKPKLVQIAEEESDKEIQDLDVIEEQTEADDLSHMAKSEASHGNNDEDDDEEGSFILDLEIPESIRESTQGSRTESPFEDKFEIHDER
# partner: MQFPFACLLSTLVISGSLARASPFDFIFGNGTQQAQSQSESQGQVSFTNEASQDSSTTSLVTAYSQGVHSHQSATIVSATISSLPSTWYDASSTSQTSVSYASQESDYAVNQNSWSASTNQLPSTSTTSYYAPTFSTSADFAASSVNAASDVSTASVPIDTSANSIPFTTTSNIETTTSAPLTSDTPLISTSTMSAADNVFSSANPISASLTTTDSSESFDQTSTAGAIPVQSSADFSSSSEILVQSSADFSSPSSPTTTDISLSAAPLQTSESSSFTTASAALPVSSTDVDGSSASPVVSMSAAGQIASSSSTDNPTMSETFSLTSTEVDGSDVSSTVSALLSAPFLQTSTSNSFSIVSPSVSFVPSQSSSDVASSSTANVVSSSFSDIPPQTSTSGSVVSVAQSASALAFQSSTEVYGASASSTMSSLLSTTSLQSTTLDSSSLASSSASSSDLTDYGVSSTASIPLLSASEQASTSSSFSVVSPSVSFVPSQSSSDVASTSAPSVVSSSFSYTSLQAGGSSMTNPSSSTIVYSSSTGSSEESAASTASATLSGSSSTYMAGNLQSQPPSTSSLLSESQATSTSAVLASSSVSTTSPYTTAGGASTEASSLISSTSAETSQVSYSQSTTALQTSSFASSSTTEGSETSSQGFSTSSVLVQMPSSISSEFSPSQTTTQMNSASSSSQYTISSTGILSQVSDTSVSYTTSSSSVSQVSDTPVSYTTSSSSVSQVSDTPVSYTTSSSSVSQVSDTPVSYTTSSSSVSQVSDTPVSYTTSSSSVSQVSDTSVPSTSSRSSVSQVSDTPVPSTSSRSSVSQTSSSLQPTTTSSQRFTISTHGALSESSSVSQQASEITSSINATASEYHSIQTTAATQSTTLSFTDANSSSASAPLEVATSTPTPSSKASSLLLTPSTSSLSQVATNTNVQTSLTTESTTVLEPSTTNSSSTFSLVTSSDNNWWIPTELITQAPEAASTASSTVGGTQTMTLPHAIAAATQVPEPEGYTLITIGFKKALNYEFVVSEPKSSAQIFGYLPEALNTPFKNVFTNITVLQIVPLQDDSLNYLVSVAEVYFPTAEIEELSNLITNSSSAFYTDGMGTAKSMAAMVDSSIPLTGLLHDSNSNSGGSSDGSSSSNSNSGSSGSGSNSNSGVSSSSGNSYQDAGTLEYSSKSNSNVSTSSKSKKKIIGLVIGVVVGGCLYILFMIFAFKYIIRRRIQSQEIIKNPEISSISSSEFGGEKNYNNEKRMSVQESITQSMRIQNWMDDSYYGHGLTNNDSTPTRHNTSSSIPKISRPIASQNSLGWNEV
# Variants of: B1
# Conditions: with msb2_yeast MSB2, P32334
row,effect of a mutation on the interaction,Variant
1,disrupting interaction strength,MSSSSKASASSSLSSTATSSTSATRGSDGCVVADSTASAPVCASGEYCVMTSLTCDKCPSTYCAKQSDSQLSSLSSSSSSSSSSNSNEKTSLIVGFTVGIVGGAMLIALVALYFINKRYWKPKRQKNKALKLEEASQSYGNEEEYFDDEDDDDEDDEDDGGMRKDESHTLFNTSLVPPTLNVPGNRSSASTTRTRASNILPIAYIPGVTSGLSTDKLQSKLRSSSKRQNAAGDIRSHITLGSSILDGLDDEDDEHNQVLNKDADDNLITAIRAKPKLVQIAEEESDKEIQDLDVIEEQTEADDLSHMAKSEASHGNNDEDDDEEGSFILDLEIPESIRESTQGSRTESPFEDKFEIHDER [C33A;C39A]
2,disrupting interaction strength,MSSSSKASASSSLSSTATSSTSATRGSDGAVVCDSTASCPVAASGEYCVMTSLTCDKCPSTYCAKQSDSQLSSLSSSSSSSSSSNSNEKTSLIVGFTVGIVGGAMLIALVALYFINKRYWKPKRQKNKALKLEEASQSYGNEEEYFDDEDDDDEDDEDDGGMRKDESHTLFNTSLVPPTLNVPGNRSSASTTRTRASNILPIAYIPGVTSGLSTDKLQSKLRSSSKRQNAAGDIRSHITLGSSILDGLDDEDDEHNQVLNKDADDNLITAIRAKPKLVQIAEEESDKEIQDLDVIEEQTEADDLSHMAKSEASHGNNDEDDDEEGSFILDLEIPESIRESTQGSRTESPFEDKFEIHDER [C30A;C42A]
3,decreasing interaction strength,MSSSSKASASSSLSSTATSSTSATRGSDGAVVCDSTASCPVCASGEYCVMTSLTADKCPSTYCAKQSDSQLSSLSSSSSSSSSSNSNEKTSLIVGFTVGIVGGAMLIALVALYFINKRYWKPKRQKNKALKLEEASQSYGNEEEYFDDEDDDDEDDEDDGGMRKDESHTLFNTSLVPPTLNVPGNRSSASTTRTRASNILPIAYIPGVTSGLSTDKLQSKLRSSSKRQNAAGDIRSHITLGSSILDGLDDEDDEHNQVLNKDADDNLITAIRAKPKLVQIAEEESDKEIQDLDVIEEQTEADDLSHMAKSEASHGNNDEDDDEEGSFILDLEIPESIRESTQGSRTESPFEDKFEIHDER [C30A;C55A]
4,decreasing interaction strength,MSSSSKASASSSLSSTATSSTSATRGSDGCVVADSTASCPVCASGEYCVMTSLTCDKAPSTYCAKQSDSQLSSLSSSSSSSSSSNSNEKTSLIVGFTVGIVGGAMLIALVALYFINKRYWKPKRQKNKALKLEEASQSYGNEEEYFDDEDDDDEDDEDDGGMRKDESHTLFNTSLVPPTLNVPGNRSSASTTRTRASNILPIAYIPGVTSGLSTDKLQSKLRSSSKRQNAAGDIRSHITLGSSILDGLDDEDDEHNQVLNKDADDNLITAIRAKPKLVQIAEEESDKEIQDLDVIEEQTEADDLSHMAKSEASHGNNDEDDDEEGSFILDLEIPESIRESTQGSRTESPFEDKFEIHDER [C33A;C58A]

# Reference: IntAct's records for PubMed 26598606
